Source: publication PMC6864063

molecular target: His-SUMO-tagged SH3 domain of c-Src (UniProt P12931); assay: pull-down; His-SUMO-c-Src-SH3 as bait on Ni2+ beads, cleaved ChoKα constructs as probes; equimolar (1:1, 25 µM); 200 mM KCl, 30 mM imidazole pH 8.5, 25 mM Tris pH 8.5, 10 mM MgCl2; three washes; SDS-PAGE, Coomassie; band intensities by ImageJ

Sequence of Choline kinase alpha Δ49 P(61,62)A (P35790 other isoform, or with tags, fused parts or gaps mutant): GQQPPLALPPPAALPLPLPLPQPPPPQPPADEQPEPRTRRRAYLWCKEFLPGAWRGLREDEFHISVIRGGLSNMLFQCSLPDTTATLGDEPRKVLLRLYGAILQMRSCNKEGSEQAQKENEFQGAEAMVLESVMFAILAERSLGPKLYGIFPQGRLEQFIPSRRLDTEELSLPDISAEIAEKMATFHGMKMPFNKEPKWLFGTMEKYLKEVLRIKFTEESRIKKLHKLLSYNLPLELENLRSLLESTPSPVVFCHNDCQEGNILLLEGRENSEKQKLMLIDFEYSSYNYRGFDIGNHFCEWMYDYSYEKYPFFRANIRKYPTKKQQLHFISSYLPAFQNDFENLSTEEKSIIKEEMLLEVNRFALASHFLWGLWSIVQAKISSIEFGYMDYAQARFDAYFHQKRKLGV
Sequence of Choline kinase alpha Δ49, wild type (P35790 50-457, stated change not applied): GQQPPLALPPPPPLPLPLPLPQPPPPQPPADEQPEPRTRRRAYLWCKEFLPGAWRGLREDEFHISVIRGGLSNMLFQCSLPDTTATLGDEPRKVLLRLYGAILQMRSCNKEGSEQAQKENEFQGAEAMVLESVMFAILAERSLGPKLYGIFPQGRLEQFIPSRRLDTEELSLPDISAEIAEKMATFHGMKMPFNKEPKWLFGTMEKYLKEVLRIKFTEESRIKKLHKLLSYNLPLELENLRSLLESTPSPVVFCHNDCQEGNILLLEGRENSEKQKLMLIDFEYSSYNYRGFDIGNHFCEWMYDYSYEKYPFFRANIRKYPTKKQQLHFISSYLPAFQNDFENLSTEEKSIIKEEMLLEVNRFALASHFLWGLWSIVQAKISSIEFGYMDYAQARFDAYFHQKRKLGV
Sequence of Choline kinase alpha Δ49 P(59,60)A (P35790 other isoform, or with tags, fused parts or gaps mutant): as the sequence (P35790 50-457, stated change not applied) above, with P10A, P11A counted along it
Sequence of Choline kinase alpha Δ49 P(72,73)A (P35790 other isoform, or with tags, fused parts or gaps mutant): as the sequence (P35790 50-457, stated change not applied) above, with P23A, P24A counted along it

ratio of the ChoKα band intensity to the His-SUMO-cSrcSH3 band intensity | Substance
0.7 | Choline kinase alpha Δ49 P(59,60)A (from UniProt P35790 50-457) (domain or fragment)
0.2 | Choline kinase alpha Δ49 P(61,62)A (from UniProt P35790 50-457) (domain or fragment)
0.88 | Choline kinase alpha Δ49 P(72,73)A (from UniProt P35790 50-457) (domain or fragment)
0.69 | Choline kinase alpha Δ49, wild type (from UniProt P35790 50-457) (domain or fragment)
